# In paper PMC10773802, “Electrochemical aptasensor fabricated by anchoring recognition aptamers and immobilizing redox probes on bipolar silica nanochannel array for reagentless detection of carbohydrate antigen 15-3”:
# Target: carbohydrate antigen 15-3 (CA15-3) (UniProt P15941 24-1097)
# Assay: electrochemical aptasensor (DPV, CV, EIS); aptamer immobilized on bp-SNA/ITO with Co(bpy)3 2+ probe, BSA-blocked; linear 0.001-500 U/mL, LOD 0.13 mU/mL (not a Kd); 0.01 M PBS (sodium phosphate), pH 7.4; CA15-3 incubation 80 min at 4 °C; BSA-blocked electrode (0.1 wt%)
# Settings: protein: commercial
# Sequence of carbohydrate antigen 15-3 (CA15-3) (P15941 24-1097): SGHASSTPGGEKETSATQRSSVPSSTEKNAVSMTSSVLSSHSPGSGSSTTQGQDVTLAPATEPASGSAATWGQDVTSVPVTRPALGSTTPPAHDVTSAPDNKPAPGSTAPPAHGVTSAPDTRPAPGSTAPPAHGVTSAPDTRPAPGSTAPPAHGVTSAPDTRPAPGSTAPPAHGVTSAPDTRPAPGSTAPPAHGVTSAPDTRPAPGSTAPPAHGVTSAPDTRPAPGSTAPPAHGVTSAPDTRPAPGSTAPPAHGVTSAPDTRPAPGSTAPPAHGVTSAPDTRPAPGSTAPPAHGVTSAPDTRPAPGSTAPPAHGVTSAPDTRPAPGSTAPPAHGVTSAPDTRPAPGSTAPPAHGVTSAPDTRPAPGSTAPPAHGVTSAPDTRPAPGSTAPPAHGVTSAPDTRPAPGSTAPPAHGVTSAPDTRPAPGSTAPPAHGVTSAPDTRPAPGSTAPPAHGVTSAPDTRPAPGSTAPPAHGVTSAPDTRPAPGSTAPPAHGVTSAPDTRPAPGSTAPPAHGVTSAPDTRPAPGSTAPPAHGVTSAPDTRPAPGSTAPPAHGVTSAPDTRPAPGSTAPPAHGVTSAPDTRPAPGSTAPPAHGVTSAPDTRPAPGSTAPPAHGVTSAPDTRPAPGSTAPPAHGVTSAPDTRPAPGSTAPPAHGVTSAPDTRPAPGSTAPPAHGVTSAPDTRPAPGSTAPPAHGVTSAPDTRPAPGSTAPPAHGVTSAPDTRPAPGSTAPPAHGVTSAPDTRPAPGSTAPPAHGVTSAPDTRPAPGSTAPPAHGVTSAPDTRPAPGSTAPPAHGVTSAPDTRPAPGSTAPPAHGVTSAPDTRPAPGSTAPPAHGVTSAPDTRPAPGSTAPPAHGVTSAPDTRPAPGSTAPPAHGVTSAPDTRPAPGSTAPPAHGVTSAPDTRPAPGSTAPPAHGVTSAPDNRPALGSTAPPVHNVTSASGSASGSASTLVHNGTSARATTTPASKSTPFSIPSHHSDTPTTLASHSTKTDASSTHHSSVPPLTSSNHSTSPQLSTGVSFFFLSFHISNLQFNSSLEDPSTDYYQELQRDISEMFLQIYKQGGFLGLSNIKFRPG
binder,measurement,value
"CTTCCTCCCTGAAGTGAATATGACAGATCACAACTTCCCTCCTTC (ssDNA, 5'-NH2) [CA15-3 aptamer (amino-modified)]",binding result,binds
